Results taken from paper PMC9314330, “Structural basis of human TREX1 DNA degradation and autoimmune disease” (Nature Communications, 2022).

Tests used:
[1] = molecular target: the molecule itself; assay: crystal structure; WT hTREX1 with 22-nt Y-form dsDNA (1:1.3 protein:DNA), 0.05 M Li2SO4, 0.1 M Bis-Tris pH 6.5, 25% PEG-3350, 18 °C; spacegroup P 1 21 1, 3 copies of hTREX1-DNA dimer in the asymmetric unit
[2] = molecular target: the molecule itself; assay: crystal structure; apo hTREX1 chimeras, hanging-drop vapor diffusion at 18 °C; spacegroup P 41 21 2, one hTREX1 dimer in the asymmetric unit
hTREX1 K160R = molecular target: T1, hTREX1 K160R (Homo sapiens, UniProt Q9NSU2 1-242, K160R); assay: thermal shift (thermofluor); 10 uM protein; 10 or 20 uM DNA; higher than WT; Tm about 63.2 C at 20 uM DNA (mean of source data, column order inferred); EMSA: 20 mM HEPES-NaOH pH 7.8, 75 mM KCl, 10 mM EDTA, 1 mM DTT, 4 C 30 min, 2% agarose; thermofluor: 20 mM Tris-HCl pH 7.5, 75 mM KCl, 1 mM TCEP, DNA preincubated at 4 C 30 min, 20-95 C ramp; crystals: 20 mM HEPES-KOH pH 7.5, 78 mM KCl, 1 mM TCEP over 0.05 M Li2SO4, …; settings: protein: recombinant; tags: none (His-SUMO2 removed by SENP2); chain copies: 2; blunt; self-complementary strand
T1 sequence: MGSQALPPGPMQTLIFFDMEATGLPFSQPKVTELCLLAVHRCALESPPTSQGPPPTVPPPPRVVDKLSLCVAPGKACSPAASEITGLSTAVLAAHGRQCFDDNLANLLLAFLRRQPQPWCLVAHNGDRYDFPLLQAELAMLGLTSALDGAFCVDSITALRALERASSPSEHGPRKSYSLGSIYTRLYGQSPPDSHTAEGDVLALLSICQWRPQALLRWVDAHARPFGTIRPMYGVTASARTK

B1: human TREX1 (wildtype), N-terminal enzymatic domain, amino acids 1-242 (enzyme, UniProt Q9NSU2-3 1-242, looked up)
chain: MGSQALPPGPMQTLIFFDMEATGLPFSQPKVTELCLLAVHRCALESPPTSQGPPPTVPPPPRVVDKLSLCVAPGKACSPAASEITGLSTAVLAAHGRQCFDDNLANLLLAFLRRQPQPWCLVAHNGDRYDFPLLQAELAMLGLTSALDGAFCVDSITALKALERASSPSEHGPRKSYSLGSIYTRLYGQSPPDSHTAEGDVLALLSICQWRPQALLRWVDAHARPFGTIRPMYGVTASARTK
notes: human TREX1, C-terminal truncation, amino acids 1-242 of the 314-residue protein (catalytic domain 1-242, C-terminus 243-314); numbers count on: the 314-residue form; Crystallised with 22-nt Y-form dsDNA (2:2 complex); also called hTREX1; WT hTREX1; source: E. coli BL21-RIL DE3, purified (Ni-NTA, Heparin HP, Superdex S75)
Does B1 bind [1]?
Result: binds

B2: hTREX1 Chi 5.1 (A5T/P8H/P10H), amino acids 1-242 (enzyme, human, UniProt Q9NSU2-3 1-242, looked up)
chain: MGSQTLPHGHMQTLIFFDMEATGLPFSQPKVTELCLLAVHRCALESPPTSQGPPPTVPPPPRVVDKLSLCVAPGKACSPAASEITGLSTAVLAAHGRQCFDDNLANLLLAFLRRQPQPWCLVAHNGDRYDFPLLQAELAMLGLTSALDGAFCVDSITALKALERASSPSEHGPRKSYSLGSIYTRLYGQSPPDSHTAEGDVLALLSICQWRPQALLRWVDAHARPFGTIRPMYGVTASARTK
notes: human TREX1, amino acids 1-242 of the 314-residue protein, with three mouse-like mutations; numbers count on: the 314-residue form; also called human TREX1 Chi 5.1; source: E. coli BL21-RIL DE3, purified (Ni-NTA, Heparin HP, Superdex S75)
Does B2 bind [2]?
Result: binds

B3: 30-bp dsDNA (dsDNA)
DNA 1: GCTCGAGTCATGACGCGTCATGACTCGAGC
DNA 2: GCTCGAGTCATGACGCGTCATGACTCGAGC
Does B3 bind (hTREX1 K160R)?
Result: binds
